Biological target: soluble HLA-A*02:01 molecules (purified MHC with human β2-microglobulin) (human)
Test: competition with radiolabeled standard peptide for soluble HLA-A*02:01

GIFEDRAPV (modifications not checked) [gB183-191 peptide (HSV-1 glycoprotein B residues 183-191, …)] was tested, and the Kd was > 500 nM.

With NLLTTPKFT (modifications not checked) [gB342-350 peptide (HSV-1 glycoprotein B residues 342-350, …)] the Kd was > 500 nM.
